According to US20050191706A1:

Experiments:
[1] = target: Lβ26F; experiment: flow; details: chains peptide; modification not given
[2] = target: Lβ11H, Dβ57A; experiment: flow; details: chains peptide; modification not given

Binder: PKYVKQNTLKLAT [bio-HA308-316]
- Kd [1]: 3.72 µM
- Kd [2]: 8.56 µM
